Source: patent US20110045570

Experiments:
[1] = molecular target: T1, butyroxycarboxy-Leu-Ser-Thr-Arg-p-nitroanilide
T1 chain: LSTR

[2] = molecular target: T2, N-glutaryl-Ala-Ala-Pro-Leu-p-nitroanilide
T2 chain: AAPL

[3] = molecular target: T3, N-p-tosyl-Gly-Pro-Lys-p-nitroanilide
T3 chain: GPK

[4] = molecular target: T4, N-succinyl-Ala-Ala-Ala-p-nitroanilide
T4 chain: AAA

[5] = molecular target: T5, N-succinyl-Ala-Ala-Pro-Met-p-nitroanilide
T5 chain: AAPM

[6] = molecular target: T6, N-succinyl-Ala-Ala-Val-Ala-p-nitroanilide
T6 chain: AAVA

[7] = molecular target: T7, N-methoxysuccinyl-Ala-Ile-Pro-Met-p-nitroanilide
T7 chain: AIPM

[8] = molecular target: T8, N-succinyl-Ala-Ala-Pro-Phe-p-nitroanilide
T8 chain: AAPF

[9] = molecular target: T9, N-succinyl-Gly-Gly-Phe-p-nitroanilide
T9 chain: GGF

[10] = molecular target: T10, N-succinyl-Ala-Ala-p-nitroanilide
T10 chain: AA

[11] = molecular target: T11, N-carbobenzoxy-Pro-citrulline-p-nitroanilide
T11 chain: P

[12] = molecular target: T12, N-carboxybenzoxy-Phe-Val-Arg-p-nitroanilide
T12 chain: FVR

B1: alkaline protease ALTP (protein)
chain: AQSTPWGVTRVQAPNVWNRGFTGSGVRVAVLDTGIHSSHEDLTVSGGYSVFGDSPYNDVQGHGTHVAGTIAARNNSVGVIGVAYNAQLYAVKVLNNQGSGTLAGIAQGIEWARQNNMHVINMSLGGTSGSTTLQNAVNAAYNAGILVVAAAGNSGNSAGTGDNVGFPARYPNAMAVAATTSGNVRASFSSTGPAVEIAAPGQDINSTYPTNTYRSLNGTSMAAPHVAGVAALLKSARPAVTAAGIRNAMNSTALNLGNSNWYGNGLVRANNALDMVLSY
With B1 the “activity to synthetic substrate (p-nitroaniline liberated)” value (“activity … (p-nitroaniline liberated)” below) [1] was “It showed activity to, besides the foregoing synthetic substrates, butyroxycarboxy-Leu-Ser-Thr-Arg-p-nitroanilide (LSTR)”, the Relative activity (%) [2] was 91% and the “activity … (p-nitroaniline liberated)” value [3] was “It showed activity to ... N-p-tosyl-Gly-Pro-Lys-p-nitroanilide (To-GPK)”. The “activity … (p-nitroaniline liberated)” value [4] was “It showed activity to ... N-succinyl-Ala-Ala-Ala-p-nitroanilide (AAA)”, the Relative activity (%) [5] was 74% and the Relative activity (%) [6] was 4.6%. The Relative activity (%) [7] was 90%, the Relative activity (%) [8] was 100% and the “activity … (p-nitroaniline liberated)” value [9] was “It showed activity to ... N-succinyl-Gly-Gly-Phe-p-nitroanilide (GGF)”. The “initial cleavage site (LC/MS/MS of digestion fragments)” value (acidic insulin B-chain) was “alkaline protease ALTP of the invention first cleaves Leu-Tyr”, the “peptide bonds cleaved within 24 hours (300 ng enzyme, LC/MS/MS)” value (acidic insulin B-chain) was 26 peptide bonds of 29 peptide bonds except Phe-Val and Thr-Pro-Lys bonds are cleaved within 24 hours and the “activity … (p-nitroaniline liberated)” value [10] was “It showed activity to ... N-succinyl-Ala-Ala-p-nitroanilide (AA)”. The “activity … (p-nitroaniline liberated)” value [11] was “It showed activity to ... N-carbobenzoxy-Pro-citrulline-p-nitroanilide (CBZ-Pro-Cit)” and the “activity … (p-nitroaniline liberated)” value [12] was “It showed activity to ... N-carboxybenzoxy-Phe-Val-Arg-p-nitroanilide (Z-FVR)”.
